A short description of the data set: label from the status in PepcDB records.

For the sequence “MSPDLIPHQKSLSPSYLVFCDVDETLIRCKSGPEFLRHYFEFRHGAEGARRTEELLADLYARLARGLPRDEANREYHRAWRRCPVDEVEDRARHWYRERSRAADFYITATVDALRRHRAEGGAVALVSGSFPPLLPLVAEEVGAQYVLGARLERCGRVLTGELLGLPAIGDGKRVLARELLARHPHIDPADCYAYGDHPSDLPMLHMVGHATLVTPDGTHAPVKPAALT”, the protein production entry is on record as “failed”. For the sequence “MSPDSCPLVKNILLLDSEGKRVAVKYYSDDWPTNAAKLSFEKYVFSKTSKTNARTEAEITLLDSNIIVYKFAQDLHFFVTGGENENELILASVLQGFFDAVALLLRSNVEKMEALENLDLIFLCLDEMVDQGVVLETDPNVIAGKVAMQSTEASGSLSEQTLTQALATAREHLARSLLT”, the protein production entry was “failed”. Take “MSPFESMEKFPHLLVLDFDGVLCDGLQEYFQTSCQVCRQIWPDLPREKLDRQRDNFYFLRPVIETGWEMPLLLKALATGVEPAAIEAAWPAVAQTLQRQEQIGKSQLAPVLDQVRDNYIHNDLAYWLGLHHFYPGVIGQLNHWLQSPYPQWLYVVTTKEGRFVQQLLKNQKVDFPLGQIIGKEIKQPKFKTLEQLRVKHQCDGDRLWFVEDMLT”: the protein production result is “failed”. For “MSPIVTAILVASNLGLIFLLMTVPLGLRTVRVSRVIAMDRGRLWQALWPLGSDAGWSGEILSAEPLDGEGVSRIMLSWEGRDGEPIERRARFDDVVEGSRFSMRVLEDTALDASFWKDYRETAELVSEGSGTRVTLGRTDRYRGVAFLVFRYFAMRRELSKLQRWAMTGQYRKGGWFEHPLSQVGFAVLSALILWPFFGLHLGGLALAAILTSVVALHELGHMAAFRLMGHRKARMIFIPLLGGIAIGGRPYNSRFEVAFVALMGAGFSAFLVPIAIAASAFAGSEGHKAAAALLAALAGCAALFNIANLVPVWKFDGGQVLRQICPGPVALALASFFLLSAFLAVGWEAGFSSGFLLATGAVFSILSLLTMGSGVKPRYELKPIRTVDRFAIAGALLAVFVIHGCGVLWASAQLL”, the protein production entry is recorded as “failed”. As for “MSPKTTKKIAILTSGGDAPGMNATLVYLTRYATSSEIEVFFVKNGYYGLYHDELVPAHQLDLSNSLFSAGTVIGSKRFVEFKELKVREQAAQNLKKRQIDYLVVIGGDGSYMGAKLLSELGVNCYCLPGTIDNDINSSEFTIGFLTALESIKVNVQAVYHTTKSHERVAIVEVMGRHCGDLAIFGALATNADFVVTPSNKMDLKQLESAVKKILQHQNHCVVIVSENIYGFDGYPSLTAIKQHFDANNMKCNLVSLGHTQRGFAPTSLELVQISLMAQHTINLIGQNKVNQVIGNKANVPVNYDFDQAFNMPPVDRSALIAVINKNII”, the protein production result is listed as “failed”. As to “MSPLILMITAGAGIALLLFLVLKYKFQPFVALMLVSILVALVAGVKPAELVATIEGGMGKTLGHIAIIIALGAMIGRIIELSGGAEALAKTLIERFGNRRTPLALTMAGFIIGVPVFFEVGVIILMPLAYGVARSARKPLLVFALPMCAALLTVHAFLPPHPGAVAAASQLGADLGRVLMFGLPLTALLCYVGYRVAGRMTRRNYPMTDDIRAEVYGPHVTNEDLAAWNNGSEQPASPQAVAAVAHMGLEESTGSLAAKLPPAPPPGFGLIVSLILLPIVLILLGTLATSLLPLESTLRGVLTVLGAPLVALLLDTLLCAWLLGSRRGWSRSQVSDVIGSALPGVAMVILIAGAGGVFGKVLVDTGIGAVVSDLLRTTGLPVLALGFLLTMLLRAVQGSTTVALVTTAGIIAPLIATLNLSPNHMALLCLAMGGGGLAMSHINDAGYWIFTKLAGLNVADGLRTWTVITTLLGTLGFCITLLIWPFV”, the protein production result is “failed”. Consider “MSPMRIGLVCIRGSVPAFENFGFLPTDIVGSNGLVNGSRAHRVLDGIIIPGGSIVESGSLSPELAFEIRRMASDGKFVLGICSGFQALAERTDIGRKSPCPVYREGLGLLNVTFHPMISNDRVEATITGESFLTSGMSGERITGFHCHTYGEIRGDAPEIMKSRIVRADYHERPGEILSGVCSDDGNVAGTMVHGCLDENQTLVSNILKFLDADETARERILEANRKLREALRSELGISTGIRVMDRGGTRGTPPAIMIASTGSDSGKTFILTGLAGALRRRGLRVGVIKVGPDVRDIVPALYLIKEPMEEHSSIRIGRLGWMELRDVLESVRGRYDIILIEGVMSILTGLLNDITPYSGAEIALAAGIPLIMVAGCSKGGIESAVVDLDAHISVLEGLGLEVSCGILNRVYDMDIFERASGGRYLAIPRVEMSERGGTPEVEIKLEDFCLKAMETVEEHLDVDTLISFAKKPEFRGYMGPEEIKKVFSPLEHHHHHH”, for which the protein production result is “failed”. Take “MSPQSMLTSPQHPRRTTMVISHGTLSASAEHAAHLRQLLVHIAQATRQEDGCLLYLVSEDLSQPGHFLITEHWDNLGAMHTHLALPGVTQAIDALKHLNVTDLKITAYEAGEAINIMG”: the protein production result is “not failed”.

The values are drawn from a protein production outcome set (Wang et al. 2014).
